Test results from paper PMC10247930, “The effects of novel macrocyclic chelates on the targeting properties of the ^68Ga-labeled Gastrin releasing peptide receptor antagonist RM2” (EJNMMI Research, 2023).

Assay: in vivo
Set-up: species or system BALB/c nu/nu mice
Details: male, BALB/c nu/nu, mouse, iv, 2.6 MBq, total radioactivity
Protocol: Biodistribution. BALB/c nu/nu male mice were implanted subcutaneously with 10 million PC-3 tumor cells, freshly expanded in saline. Biodistribution studies were performed 3 to 4 weeks after tumor cell inoculation when the tumor-bearing mice reached an average mass of 20 ± 3 g. Mice were injected with ^68Ga-X-RM2 (100 µL, 2.6 MBq) into the tail vein. The animals were sacrificed at 30, 60, and 120 min post-injection. Then the organs of interest were collected and weighed, and their radioactivity content was measured in a gamma counter.

SMILES	tissue to tissue ratio at 0.5 h (Tumour/blood ratio)	tissue to tissue ratio at 1 h (Tumour/blood ratio)	tissue to tissue ratio at 2 h (Tumour/blood ratio)	tissue to tissue ratio at 0.5 h (Tumour/bone ratio)	tissue to tissue ratio at 1 h (Tumour/bone ratio)	tissue to tissue ratio at 2 h (Tumour/bone ratio)	tissue to tissue ratio at 0.5 h (Tumour/kidneys ratio)	tissue to tissue ratio at 1 h (Tumour/kidneys ratio)	tissue to tissue ratio at 2 h (Tumour/kidneys ratio)	tissue to tissue ratio at 0.5 h (Tumour/liver ratio)	tissue to tissue ratio at 1 h (Tumour/liver ratio)	tissue to tissue ratio at 2 h (Tumour/liver ratio)	tissue to tissue ratio at 0.5 h (Tumour/muscle ratio)	tissue to tissue ratio at 1 h (Tumour/muscle ratio)	tissue to tissue ratio at 2 h (Tumour/muscle ratio)
CC(C)C[C@H](NC(=O)C[C@H](O)[C@H](CC(C)C)NC(=O)[C@H](Cc1c[nH]cn1)NC(=O)CNC(=O)[C@@H](NC(=O)[C@H](C)NC(=O)[C@H](Cc1c[nH]c2ccccc12)NC(=O)[C@H](CCC(N)=O)NC(=O)[C@@H](Cc1ccccc1)NC(=O)CN1CCC(NC(=O)CN2CCN(CC(=O)O)CCN(CC(=O)O)CCN(CC(=O)O)CC2)CC1)C(C)C)C(N)=O (68Ga complex, metal not drawn) [DOTA-RM2, reference compound]	2.35	3.88	4.58	11.2	8.99	8.6	1.53	1.89	2.05	3.19	3.4	4	14.4	21.8	31.7
CC(C)C[C@H](NC(=O)C[C@H](O)[C@H](CC(C)C)NC(=O)[C@H](Cc1c[nH]cn1)NC(=O)CNC(=O)[C@@H](NC(=O)[C@H](C)NC(=O)[C@H](Cc1c[nH]c2ccccc12)NC(=O)[C@H](CCC(N)=O)NC(=O)[C@@H](Cc1ccccc1)NC(=O)CN1CCC(NC(=O)CCCCC2(N(CC(=O)O)CC(=O)O)CN(CC(=O)O)CCN(CC(=O)O)C2)CC1)C(C)C)C(N)=O [AAZTA^5-RM2]	3.53	8.38	15.6	21.8	36	57.5	1.2	1.41	1.31	6.04	7.55	5.92	10.3	37.6	60.7
CC(C)C[C@H](NC(=O)C[C@H](O)[C@H](CC(C)C)NC(=O)[C@H](Cc1c[nH]cn1)NC(=O)CNC(=O)[C@@H](NC(=O)[C@H](C)NC(=O)[C@H](Cc1c[nH]c2ccccc12)NC(=O)[C@H](CCC(N)=O)NC(=O)[C@@H](Cc1ccccc1)NC(=O)CN1CCC(NC(=O)CCCCC2(N(C)CC(=O)O)CN(CC(=O)O)CCN(CC(=O)O)C2)CC1)C(C)C)C(N)=O [DATA^5m-RM2]	4.23	14.6	18.2	16.2	29.3	50.2	1.73	2.2	2.41	5.86	7.57	6.09	25.4	56.8	62.2
